According to patent publication US20210008207A1 (TECHNISCHE UNIVERSIT T M NCHEN, published 2021):

Legend:
[1] = biological target: CEACAMs endogenously expressed on AGS gastric cancer cells (CEACAM1, CEACAM5 and CEACAM6); experiment: cell-based or functional assay
[2] = biological target: human CEACAM1-Fc (extracellular domains N-A1-B1-A2 fused to a human heavy chain Fc-domain) (human) (UniProt P13688)
[3] = biological target: CEACAMs endogenously expressed on AGS gastric cancer cells (CEACAM1, CEACAM5 and CEACAM6); experiment: flow cytometry; AGS cells with myc-His-tagged HopQ, anti c-myc mAb, FITC goat anti-mouse F(ab')2; thin line: control IgG; number in the panel = median
[4] = biological target: CEACAM7 on transfected CHO cells (human) (UniProt Q14002); experiment: flow cytometry; CHO transfectant 'CEACAM7' with HopQ as in Fig. 6 b; number in the panel = median; untransfected CHO with HopQ: 6 [cont.) c]
Chain of CEACAM7 on transfected CHO cells (human) (Q14002 36-242): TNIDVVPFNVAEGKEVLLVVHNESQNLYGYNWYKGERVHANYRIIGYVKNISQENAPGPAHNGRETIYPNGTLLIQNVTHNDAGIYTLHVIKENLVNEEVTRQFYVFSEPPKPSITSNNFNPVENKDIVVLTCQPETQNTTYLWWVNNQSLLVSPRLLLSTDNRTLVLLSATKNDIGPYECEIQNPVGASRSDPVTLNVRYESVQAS

[5] = biological target: CEACAM4 on transfected CHO cells (human) (UniProt O75871); experiment: flow cytometry; CHO transfectant 'CEACAM4' with HopQ as in Fig. 6 b; number in the panel = median; untransfected CHO with HopQ: 6 [cont.) c]
Chain of CEACAM4 on transfected CHO cells (human) (O75871 36-244): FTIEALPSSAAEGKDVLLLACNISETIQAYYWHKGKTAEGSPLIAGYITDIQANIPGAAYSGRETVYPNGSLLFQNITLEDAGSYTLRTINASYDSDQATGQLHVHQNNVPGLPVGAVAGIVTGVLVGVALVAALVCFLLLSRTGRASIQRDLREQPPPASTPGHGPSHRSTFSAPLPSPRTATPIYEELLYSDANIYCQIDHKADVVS

[6] = biological target: human CEACAM1 (hu-CEACAM1-4L) on stably transfected CHO cells (human) (UniProt P13688); experiment: flow cytometry; CHO-CEACAM1 cells with myc-His-tagged HopQ, anti c-myc mAb, FITC goat anti-mouse F(ab')2; thin line: control IgG; number in the panel = median
[7] = biological target: human CEACAM1 (hu-CEACAM1-4L) on stably transfected CHO cells (human) (UniProt P13688); experiment: flow cytometry; CHO transfectant 'CEACAM1' with HopQ as in Fig. 6 b; number in the panel = median; untransfected CHO with HopQ: 6 [cont.) c]
[8] = biological target: CEACAM3 on transfected CHO cells (human) (UniProt P40198); experiment: flow cytometry; CHO transfectant 'CEACAM3' with HopQ as in Fig. 6 b; number in the panel = median; untransfected CHO with HopQ: 6 [cont.) c]
Chain of CEACAM3 on transfected CHO cells (human) (P40198 35-252): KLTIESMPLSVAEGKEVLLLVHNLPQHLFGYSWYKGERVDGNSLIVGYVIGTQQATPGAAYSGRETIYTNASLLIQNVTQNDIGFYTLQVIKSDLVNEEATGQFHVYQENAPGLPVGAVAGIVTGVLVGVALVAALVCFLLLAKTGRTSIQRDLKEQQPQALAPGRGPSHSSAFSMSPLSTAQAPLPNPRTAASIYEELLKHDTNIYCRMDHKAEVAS

[9] = biological target: CEACAM8 on transfected CHO cells (human) (UniProt P31997); experiment: flow cytometry; CHO transfectant 'CEACAM8' with HopQ as in Fig. 6 b; number in the panel = median; untransfected CHO with HopQ: 6 [cont.) c]
Chain of CEACAM8 on transfected CHO cells (human) (P31997 35-320): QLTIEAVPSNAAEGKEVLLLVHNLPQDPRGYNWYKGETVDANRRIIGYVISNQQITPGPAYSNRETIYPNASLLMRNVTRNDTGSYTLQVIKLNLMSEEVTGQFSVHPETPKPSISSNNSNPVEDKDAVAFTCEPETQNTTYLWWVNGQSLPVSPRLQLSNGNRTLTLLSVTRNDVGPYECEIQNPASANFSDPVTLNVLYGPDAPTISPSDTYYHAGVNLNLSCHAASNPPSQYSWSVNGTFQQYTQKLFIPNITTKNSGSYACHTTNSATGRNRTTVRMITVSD

[10] = biological target: CEACAM5 on transfected CHO cells (human) (UniProt P06731); experiment: flow cytometry; CHO transfectant 'CEACAM5' with HopQ as in Fig. 6 b; number in the panel = median; untransfected CHO with HopQ: 6 [cont.) c]
[11] = biological target: CEACAMs endogenously expressed on MKN45 gastric cancer cells (CEACAM1, CEACAM5 and CEACAM6); experiment: flow cytometry; MKN45 cells with myc-His-tagged HopQ, anti c-myc mAb, FITC goat anti-mouse F(ab')2; thin line: control IgG; number in the panel = median
[12] = biological target: CEACAM6 on transfected CHO cells (human) (UniProt P40199); experiment: flow cytometry; CHO transfectant 'CEACAM6' with HopQ as in Fig. 6 b; number in the panel = median; untransfected CHO with HopQ: 6 [cont.) c]
[13] = biological target: T1, human CEACAM6-Fc (extracellular domains N-A-B fused to a human heavy chain Fc-domain) (human, UniProt P40199 35-320); experiment: pull-down of live bacteria with CEACAM-Fc; western blot and flow cytometry with α-hu-IgG-FITC [cont.) c]
T1 construct: extracellular domain; Made in HEK293 cells; also called hu-CEACAM6-Fc; not shown: human heavy chain Fc-domain
T1 sequence: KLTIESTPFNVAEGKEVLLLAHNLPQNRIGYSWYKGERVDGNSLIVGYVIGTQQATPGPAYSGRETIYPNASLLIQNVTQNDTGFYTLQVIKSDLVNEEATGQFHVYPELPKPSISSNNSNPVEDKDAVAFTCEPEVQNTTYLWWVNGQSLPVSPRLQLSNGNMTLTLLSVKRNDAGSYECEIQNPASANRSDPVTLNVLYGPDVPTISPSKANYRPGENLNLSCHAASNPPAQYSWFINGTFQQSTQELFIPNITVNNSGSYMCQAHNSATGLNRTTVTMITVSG

[14] = biological target: T2, recombinant human CEACAM5-Fc (Sino Biological Inc.) (human, UniProt P06731 35-685); experiment: as above
T2 construct: also called hu-CEACAM5-Fc; not shown: Fc part of the bought fusion; not described
T2 sequence: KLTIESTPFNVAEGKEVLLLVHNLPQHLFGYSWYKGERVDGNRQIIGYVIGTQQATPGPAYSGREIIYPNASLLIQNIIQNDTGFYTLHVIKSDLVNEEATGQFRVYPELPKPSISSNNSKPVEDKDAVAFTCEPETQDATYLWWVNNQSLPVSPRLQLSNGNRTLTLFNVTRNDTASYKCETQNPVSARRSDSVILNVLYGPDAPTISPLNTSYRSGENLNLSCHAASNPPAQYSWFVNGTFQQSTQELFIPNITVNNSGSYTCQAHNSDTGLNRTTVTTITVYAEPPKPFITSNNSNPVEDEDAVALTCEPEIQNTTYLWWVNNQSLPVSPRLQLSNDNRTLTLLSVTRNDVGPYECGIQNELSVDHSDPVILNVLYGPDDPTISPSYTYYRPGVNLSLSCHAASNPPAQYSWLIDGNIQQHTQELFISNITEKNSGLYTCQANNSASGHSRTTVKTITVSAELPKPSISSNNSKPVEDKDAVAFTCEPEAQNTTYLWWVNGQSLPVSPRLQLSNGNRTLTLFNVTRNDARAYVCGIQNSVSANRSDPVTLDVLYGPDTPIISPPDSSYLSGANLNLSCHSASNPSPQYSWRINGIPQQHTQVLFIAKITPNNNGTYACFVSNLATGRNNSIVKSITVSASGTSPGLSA

[15] = biological target: T3, human CEACAM1-Fc (extracellular domains N-A1-B1-A2 fused to a human heavy chain Fc-domain) (human, UniProt P13688 35-428); experiment: as above
T3 construct: extracellular domain; Made in HEK293 cells; also called hu-CEACAM1-Fc; not shown: human heavy chain Fc-domain
T3 sequence: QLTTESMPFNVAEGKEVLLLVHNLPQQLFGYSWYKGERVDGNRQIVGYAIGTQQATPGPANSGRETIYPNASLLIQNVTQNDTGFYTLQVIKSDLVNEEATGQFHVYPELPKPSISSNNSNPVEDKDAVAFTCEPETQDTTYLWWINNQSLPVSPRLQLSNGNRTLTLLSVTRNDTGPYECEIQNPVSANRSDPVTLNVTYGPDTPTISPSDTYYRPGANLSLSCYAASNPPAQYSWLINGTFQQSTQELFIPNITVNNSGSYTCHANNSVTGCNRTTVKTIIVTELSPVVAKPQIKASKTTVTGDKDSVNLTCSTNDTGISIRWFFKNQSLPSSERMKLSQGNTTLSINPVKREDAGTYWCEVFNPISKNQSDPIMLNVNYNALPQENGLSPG

For “HopQ insertion domain (HopQ-ID) representing peptide (aa 190-218), HA-tagged, synthetic”, the P12-induced phosphorylation of CagA, concentration needed against HopQ^AD (fold higher concentration than HopQ^AD) [1] was 10 to 20.

Outer membrane protein babA gave a Score (Sequest) [2] of 8.

Outer membrane protein sabA showed a Score (Sequest) [2] of 6.66.

Molecule Outer membrane protein sabB has a Score (Sequest) [2] of 23.4.

With Outer membrane protein hopC the Score (Sequest) [2] was 14.4.

In the case of Outer membrane protein hopZ, the Score (Sequest) [2] is reported as 31.7.

“H. pylori strain P12 derived, myc and 6x His-tagged recombinant HopQ” showed a median relative fluorescence (FL1-H) [3] of 32, a median relative fluorescence (FL1-H) [4] of 6 and a median relative fluorescence (FL1-H) [5] of 6. For the same molecule, the median relative fluorescence (FL1-H) [6] was 18, the median relative fluorescence (FL1-H) [7] was 63 and the median relative fluorescence (FL1-H) [8] was 18. For the same molecule, the median relative fluorescence (FL1-H) [9] was 6, the median relative fluorescence (FL1-H) [10] was 136 and the median relative fluorescence (FL1-H) [11] was 155. For the same molecule, the median relative fluorescence (FL1-H) [12] was 12.

B1: HopQ of H. pylori strain P12, on live wild-type bacteria (compared with the isogenic P12ΔhopQ mutant) (other)
chain: AEDNGVFLSVGYQIGEAVQKVKNADKVQKLSDTYEQLSRLLTNDNGTNSKTSAQAINQAVNNLNERAKTLAGGTTNSPAYQATLLALRSVLGLWNSMGYAVICGGYTKSPGENNQKNFHYTDENGNGTTINCGGSTNSNGTHSSNGTNTLKADKNVSLSIEQYEKIHESYQILSKALKQAGLAPLNSKGEKLEAHVTTSKYQQDSQTKTTTSVIDTTNDAQNLLTQAQTIVNTLKDYCPMLIAKSSSGSGGGAATNTPSWQTAGGGKNSCETFGAEFSAASDMINNAQKIVQETQQLSANQPKNITQPHNLNLNTPSSLTALAQKMLKNAQSQAEILKLANQVESDFNKLSSGHLKDYIGKCDMSAISSTNMTMQSQKNNWGNGCAGVEETLTSLKTSAADFNNQTPQINQAQNLANTLIQELGNNPFRNMGMIASSTTNNGALNGLGVQVGYKQFFGEKKRWGLRYYGFFDYNHAYIKSNFFNSASDVWTYGVGSDLLFNFINDKNTNFLGKNNQISFGLFGGIALAGTSWLNSQFVNLKTISNVYSAKVNTANFQFLFNLGLRTNLARPKKKDSHHAAQHGIELGVKIPTINTNYYSFLDTKLEYRRLYSVYLNYVFAY
B1: binds [13]; binds [14]; binds [15].
